From patent US12630600B2 (MEDIMMUNE LIMITED, priority 2022, dated 2026)
Starred links: 1 amine or outer side, 2 acyl side, 3 side chain; linkers in the order of their positions; H or OH if unused. Non-standard residues stand in square brackets, D forms with d. Groups on a side chain read outwards from the residue. No end group written: not given here. *: point of attachment. C20 diacid = O=C(O)CCCCCCCCCCCCCCCCCCC(=O)*; C18 diacid = O=C(O)CCCCCCCCCCCCCCCCC(=O)*; γGlu = O=C(O)[C@H](CCC(=O)[*:2])N[*:1]; αMeF = C[C@](N)(Cc1ccccc1)C(=O)O; AEEA = NCCOCCOCC(=O)O; Aib = CC(C)(N)C(=O)O

B1: Peptide 20 (peptide)
peptide: H[Aib]HGS[αMeF]TSDVSK[αMeF]LDSK([AEEA-AEEA-γGlu-γGlu-C18 diacid])AARD[αMeF]VE[Aib]IANT-NH2
modifications: N-terminus assumed
SMILES: CC[C@H](C)[C@H](NC(=O)C(C)(C)NC(=O)[C@H](CCC(=O)O)NC(=O)[C@@H](NC(=O)[C@](C)(Cc1ccccc1)NC(=O)[C@H](CC(=O)O)NC(=O)[C@H](CCCNC(=N)N)NC(=O)[C@H](C)NC(=O)[C@H](C)NC(=O)[C@H](CCCCNC(=O)COCCOCCNC(=O)COCCOCCNC(=O)CC[C@H](NC(=O)CC[C@H](NC(=O)CCCCCCCCCCCCCCCCC(=O)O)C(=O)O)C(=O)O)NC(=O)[C@H](CO)NC(=O)[C@H](CC(=O)O)NC(=O)[C@H](CC(C)C)NC(=O)[C@](C)(Cc1ccccc1)NC(=O)[C@H](CCCCN)NC(=O)[C@H](CO)NC(=O)[C@@H](NC(=O)[C@H](CC(=O)O)NC(=O)[C@H](CO)NC(=O)[C@@H](NC(=O)[C@](C)(Cc1ccccc1)NC(=O)[C@H](CO)NC(=O)CNC(=O)[C@H](Cc1c[nH]cn1)NC(=O)C(C)(C)NC(=O)[C@@H](N)Cc1c[nH]cn1)[C@@H](C)O)C(C)C)C(C)C)C(=O)N[C@@H](C)C(=O)N[C@@H](CC(N)=O)C(=O)N[C@H](C(N)=O)[C@@H](C)O
B2: Peptide 153 (peptide)
peptide: H[Aib]QGTFTSDVSK[αMeF]LDSK([AEEA-AEEA-γGlu-C20 diacid])RAQDFVRWLL[Aib]E-OH
modifications: N-terminus assumed
SMILES: CC(C)C[C@H](NC(=O)[C@H](Cc1c[nH]c2ccccc12)NC(=O)[C@H](CCCNC(=N)N)NC(=O)[C@@H](NC(=O)[C@H](Cc1ccccc1)NC(=O)[C@H](CC(=O)O)NC(=O)[C@H](CCC(N)=O)NC(=O)[C@H](C)NC(=O)[C@H](CCCNC(=N)N)NC(=O)[C@H](CCCCNC(=O)COCCOCCNC(=O)COCCOCCNC(=O)CC[C@H](NC(=O)CCCCCCCCCCCCCCCCCCC(=O)O)C(=O)O)NC(=O)[C@H](CO)NC(=O)[C@H](CC(=O)O)NC(=O)[C@H](CC(C)C)NC(=O)[C@](C)(Cc1ccccc1)NC(=O)[C@H](CCCCN)NC(=O)[C@H](CO)NC(=O)[C@@H](NC(=O)[C@H](CC(=O)O)NC(=O)[C@H](CO)NC(=O)[C@@H](NC(=O)[C@H](Cc1ccccc1)NC(=O)[C@@H](NC(=O)CNC(=O)[C@H](CCC(N)=O)NC(=O)C(C)(C)NC(=O)[C@@H](N)Cc1c[nH]cn1)[C@@H](C)O)[C@@H](C)O)C(C)C)C(C)C)C(=O)N[C@@H](CC(C)C)C(=O)NC(C)(C)C(=O)N[C@@H](CCC(=O)O)C(=O)O
B3: Peptide 140 (peptide)
peptide: H[Aib]QGTFTSDVSK[αMeF]LDTK([AEEA-AEEA-γGlu-C18 diacid])RAQDFVRWLLE[Aib]G-OH
modifications: N-terminus assumed
SMILES: CC(C)C[C@H](NC(=O)[C@H](Cc1c[nH]c2ccccc12)NC(=O)[C@H](CCCNC(=N)N)NC(=O)[C@@H](NC(=O)[C@H](Cc1ccccc1)NC(=O)[C@H](CC(=O)O)NC(=O)[C@H](CCC(N)=O)NC(=O)[C@H](C)NC(=O)[C@H](CCCNC(=N)N)NC(=O)[C@H](CCCCNC(=O)COCCOCCNC(=O)COCCOCCNC(=O)CC[C@H](NC(=O)CCCCCCCCCCCCCCCCC(=O)O)C(=O)O)NC(=O)[C@@H](NC(=O)[C@H](CC(=O)O)NC(=O)[C@H](CC(C)C)NC(=O)[C@](C)(Cc1ccccc1)NC(=O)[C@H](CCCCN)NC(=O)[C@H](CO)NC(=O)[C@@H](NC(=O)[C@H](CC(=O)O)NC(=O)[C@H](CO)NC(=O)[C@@H](NC(=O)[C@H](Cc1ccccc1)NC(=O)[C@@H](NC(=O)CNC(=O)[C@H](CCC(N)=O)NC(=O)C(C)(C)NC(=O)[C@@H](N)Cc1c[nH]cn1)[C@@H](C)O)[C@@H](C)O)C(C)C)[C@@H](C)O)C(C)C)C(=O)N[C@@H](CC(C)C)C(=O)N[C@@H](CCC(=O)O)C(=O)NC(C)(C)C(=O)NCC(=O)O
B4: Peptide 152 (peptide)
peptide: H[Aib]QGTFTSDVSK[αMeF]LDSK([AEEA-AEEA-γGlu-C18 diacid])RAQDFVRWLL[Aib]E-OH
modifications: N-terminus assumed
SMILES: CC(C)C[C@H](NC(=O)[C@H](Cc1c[nH]c2ccccc12)NC(=O)[C@H](CCCNC(=N)N)NC(=O)[C@@H](NC(=O)[C@H](Cc1ccccc1)NC(=O)[C@H](CC(=O)O)NC(=O)[C@H](CCC(N)=O)NC(=O)[C@H](C)NC(=O)[C@H](CCCNC(=N)N)NC(=O)[C@H](CCCCNC(=O)COCCOCCNC(=O)COCCOCCNC(=O)CC[C@H](NC(=O)CCCCCCCCCCCCCCCCC(=O)O)C(=O)O)NC(=O)[C@H](CO)NC(=O)[C@H](CC(=O)O)NC(=O)[C@H](CC(C)C)NC(=O)[C@](C)(Cc1ccccc1)NC(=O)[C@H](CCCCN)NC(=O)[C@H](CO)NC(=O)[C@@H](NC(=O)[C@H](CC(=O)O)NC(=O)[C@H](CO)NC(=O)[C@@H](NC(=O)[C@H](Cc1ccccc1)NC(=O)[C@@H](NC(=O)CNC(=O)[C@H](CCC(N)=O)NC(=O)C(C)(C)NC(=O)[C@@H](N)Cc1c[nH]cn1)[C@@H](C)O)[C@@H](C)O)C(C)C)C(C)C)C(=O)N[C@@H](CC(C)C)C(=O)NC(C)(C)C(=O)N[C@@H](CCC(=O)O)C(=O)O
B5: Peptide 151 (peptide)
peptide: H[Aib]QGTFTSDVSK[αMeF]LDSK([AEEA-AEEA-γGlu-C20 diacid])RAQDFVRWLL[Aib]TE-OH
modifications: N-terminus assumed
SMILES: CC(C)C[C@H](NC(=O)[C@H](Cc1c[nH]c2ccccc12)NC(=O)[C@H](CCCNC(=N)N)NC(=O)[C@@H](NC(=O)[C@H](Cc1ccccc1)NC(=O)[C@H](CC(=O)O)NC(=O)[C@H](CCC(N)=O)NC(=O)[C@H](C)NC(=O)[C@H](CCCNC(=N)N)NC(=O)[C@H](CCCCNC(=O)COCCOCCNC(=O)COCCOCCNC(=O)CC[C@H](NC(=O)CCCCCCCCCCCCCCCCCCC(=O)O)C(=O)O)NC(=O)[C@H](CO)NC(=O)[C@H](CC(=O)O)NC(=O)[C@H](CC(C)C)NC(=O)[C@](C)(Cc1ccccc1)NC(=O)[C@H](CCCCN)NC(=O)[C@H](CO)NC(=O)[C@@H](NC(=O)[C@H](CC(=O)O)NC(=O)[C@H](CO)NC(=O)[C@@H](NC(=O)[C@H](Cc1ccccc1)NC(=O)[C@@H](NC(=O)CNC(=O)[C@H](CCC(N)=O)NC(=O)C(C)(C)NC(=O)[C@@H](N)Cc1c[nH]cn1)[C@@H](C)O)[C@@H](C)O)C(C)C)C(C)C)C(=O)N[C@@H](CC(C)C)C(=O)NC(C)(C)C(=O)N[C@H](C(=O)N[C@@H](CCC(=O)O)C(=O)O)[C@@H](C)O
B6: Peptide 4 (peptide)
peptide: HSQGS[αMeF]TSDVSK[αMeF]LDSK([AEEA-AEEA-γGlu-C18 diacid])AAQDFVQWIANT-NH2
modifications: N-terminus assumed
SMILES: CC[C@H](C)[C@H](NC(=O)[C@H](Cc1c[nH]c2ccccc12)NC(=O)[C@H](CCC(N)=O)NC(=O)[C@@H](NC(=O)[C@H](Cc1ccccc1)NC(=O)[C@H](CC(=O)O)NC(=O)[C@H](CCC(N)=O)NC(=O)[C@H](C)NC(=O)[C@H](C)NC(=O)[C@H](CCCCNC(=O)COCCOCCNC(=O)COCCOCCNC(=O)CC[C@H](NC(=O)CCCCCCCCCCCCCCCCC(=O)O)C(=O)O)NC(=O)[C@H](CO)NC(=O)[C@H](CC(=O)O)NC(=O)[C@H](CC(C)C)NC(=O)[C@](C)(Cc1ccccc1)NC(=O)[C@H](CCCCN)NC(=O)[C@H](CO)NC(=O)[C@@H](NC(=O)[C@H](CC(=O)O)NC(=O)[C@H](CO)NC(=O)[C@@H](NC(=O)[C@](C)(Cc1ccccc1)NC(=O)[C@H](CO)NC(=O)CNC(=O)[C@H](CCC(N)=O)NC(=O)[C@H](CO)NC(=O)[C@@H](N)Cc1c[nH]cn1)[C@@H](C)O)C(C)C)C(C)C)C(=O)N[C@@H](C)C(=O)N[C@@H](CC(N)=O)C(=O)N[C@H](C(N)=O)[C@@H](C)O
B7: Peptide 39 (peptide)
peptide: H[Aib]QGTFTSDVSK[αMeF]LDSK([AEEA-AEEA-γGlu-C18 diacid])RAQDFVRWLL[Aib]TE-OH
modifications: N-terminus assumed
SMILES: CC(C)C[C@H](NC(=O)[C@H](Cc1c[nH]c2ccccc12)NC(=O)[C@H](CCCNC(=N)N)NC(=O)[C@@H](NC(=O)[C@H](Cc1ccccc1)NC(=O)[C@H](CC(=O)O)NC(=O)[C@H](CCC(N)=O)NC(=O)[C@H](C)NC(=O)[C@H](CCCNC(=N)N)NC(=O)[C@H](CCCCNC(=O)COCCOCCNC(=O)COCCOCCNC(=O)CC[C@H](NC(=O)CCCCCCCCCCCCCCCCC(=O)O)C(=O)O)NC(=O)[C@H](CO)NC(=O)[C@H](CC(=O)O)NC(=O)[C@H](CC(C)C)NC(=O)[C@](C)(Cc1ccccc1)NC(=O)[C@H](CCCCN)NC(=O)[C@H](CO)NC(=O)[C@@H](NC(=O)[C@H](CC(=O)O)NC(=O)[C@H](CO)NC(=O)[C@@H](NC(=O)[C@H](Cc1ccccc1)NC(=O)[C@@H](NC(=O)CNC(=O)[C@H](CCC(N)=O)NC(=O)C(C)(C)NC(=O)[C@@H](N)Cc1c[nH]cn1)[C@@H](C)O)[C@@H](C)O)C(C)C)C(C)C)C(=O)N[C@@H](CC(C)C)C(=O)NC(C)(C)C(=O)N[C@H](C(=O)N[C@@H](CCC(=O)O)C(=O)O)[C@@H](C)O

Molecular target: human GLP-1 receptor (human, UniProt P43220)
Assay: cell-based or functional assay

cAMP production, hGLP-1R EC50 (pM) | Binder
166 | H[Aib]QGTFTSDVSK[αMeF]LDSK([AEEA-AEEA-γGlu-C18 diacid])RAQDFVQWLL[Aib]TE-OH (not fully specified) [Peptide 150]
152 | B1
41.2 | B2
22.7 | B3
11.9 | B4
111 | B5
240 | B6

Molecular target: human glucagon receptor (human, UniProt P47871)
Assay: cell-based or functional assay

cAMP production, hGluc-R EC50 (pM) | Binder
355 | H[Aib]QGTFTSDVSK[αMeF]LDSK([AEEA-AEEA-γGlu-C18 diacid])RAQDFVQWLL[Aib]TE-OH (not fully specified) [Peptide 150]
99 | B2
20.4 | B4
178 | B5
1170 | B6

Molecular target: human GLP-1 receptor (human, UniProt P43220)
Assay: cell-based or functional assay
Remark: another data set of the same source

cAMP production EC50 [nM] | Binder
0.0761 | B7

Molecular target: human glucagon receptor (human, UniProt P47871)
Assay: cell-based or functional assay
Remark: another data set of the same source

cAMP production EC50 [nM] | Binder
0.194 | B7
